Experimental data published in patent US20130315910A1 (Xencor, published 2013).
Substitutions are numbered along the chain they refer to. Names may count otherwise.

T1: human FcγRIIb receptor protein (R&D Systems) (human, UniProt P31994 46-217)
T1 construct: Bought protein injected over captured antibody in Biacore; also called CD32b
T1 sequence (looked up): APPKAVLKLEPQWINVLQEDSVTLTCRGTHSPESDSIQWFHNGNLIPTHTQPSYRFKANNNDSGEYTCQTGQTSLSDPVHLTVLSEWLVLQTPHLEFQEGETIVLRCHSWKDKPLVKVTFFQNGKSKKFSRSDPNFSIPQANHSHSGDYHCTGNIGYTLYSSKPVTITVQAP

T2: human FcγRIIa (131R), His- and GST-tagged (human, UniProt P12318 34-217)
T2 construct: Expressed in HEK293T cells, purified by nickel chromatography; also called R131 FcγRIIa; not shown: 6xHis and GST tags of the pTT5 vector
T2 sequence (looked up): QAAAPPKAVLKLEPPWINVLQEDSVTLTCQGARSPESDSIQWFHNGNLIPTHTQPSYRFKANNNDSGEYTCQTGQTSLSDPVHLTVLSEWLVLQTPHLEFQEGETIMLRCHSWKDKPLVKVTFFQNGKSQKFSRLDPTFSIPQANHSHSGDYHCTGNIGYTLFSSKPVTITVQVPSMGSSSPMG

T3: human FcγRIIa (131H), His- and GST-tagged (human, UniProt P12318 34-217)
T3 construct: also called H131 FcγRIIa; HIIa; not shown: 6xHis and GST tags of the pTT5 vector
T3 sequence (looked up): T2 sequence (looked up) with R134H

T4: human FcγRIIb on cells (transfected HEK293T cells; primary human B cells) (human, UniProt P31994 43-310)
T4 construct: whole, on cells; also called CD32b
T4 sequence (looked up): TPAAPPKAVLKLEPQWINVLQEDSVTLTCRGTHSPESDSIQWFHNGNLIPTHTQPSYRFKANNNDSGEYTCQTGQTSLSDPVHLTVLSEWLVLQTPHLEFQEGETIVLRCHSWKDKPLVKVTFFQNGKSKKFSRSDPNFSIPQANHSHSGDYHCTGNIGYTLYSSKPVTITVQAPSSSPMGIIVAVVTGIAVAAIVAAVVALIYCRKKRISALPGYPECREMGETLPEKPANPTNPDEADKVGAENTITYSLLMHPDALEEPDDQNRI

T5: mFcγRIIb (Mus musculus, UniProt P08101)
T5 construct: extracellular region, C-terminal His- and GST-tag; also called mouse FcγRII
T5 sequence (receptor extracellular region, looked up): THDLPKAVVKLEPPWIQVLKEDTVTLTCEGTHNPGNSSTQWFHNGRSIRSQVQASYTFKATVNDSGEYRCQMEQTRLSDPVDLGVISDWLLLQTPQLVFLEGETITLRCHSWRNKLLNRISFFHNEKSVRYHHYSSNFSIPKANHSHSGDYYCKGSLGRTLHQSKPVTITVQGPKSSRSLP

T6: cynoFcγRIIb (Macaca fascicularis, UniProt A0A140HDP4)
T6 construct: extracellular region, C-terminal His- and GST-tag; also called cynomolgus monkey FcγRIIb
T6 sequence (receptor extracellular region): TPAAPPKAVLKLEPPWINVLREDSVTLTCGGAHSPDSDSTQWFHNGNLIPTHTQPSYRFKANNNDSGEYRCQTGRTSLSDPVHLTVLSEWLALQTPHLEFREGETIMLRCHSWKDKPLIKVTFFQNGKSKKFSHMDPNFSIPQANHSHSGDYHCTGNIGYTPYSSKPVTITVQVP

T7: mFcγRIV
T7 construct: also called mouse FcγRIV; not shown: C-terminal His and GST tags (named only on our card)
T7 chain: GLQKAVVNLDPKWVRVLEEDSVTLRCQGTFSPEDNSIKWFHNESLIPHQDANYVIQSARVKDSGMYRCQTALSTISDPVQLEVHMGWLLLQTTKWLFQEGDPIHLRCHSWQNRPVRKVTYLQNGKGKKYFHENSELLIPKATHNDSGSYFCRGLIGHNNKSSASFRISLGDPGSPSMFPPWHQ

B1: S239D/I332E (antibody, human IgG1, kappa)
heavy: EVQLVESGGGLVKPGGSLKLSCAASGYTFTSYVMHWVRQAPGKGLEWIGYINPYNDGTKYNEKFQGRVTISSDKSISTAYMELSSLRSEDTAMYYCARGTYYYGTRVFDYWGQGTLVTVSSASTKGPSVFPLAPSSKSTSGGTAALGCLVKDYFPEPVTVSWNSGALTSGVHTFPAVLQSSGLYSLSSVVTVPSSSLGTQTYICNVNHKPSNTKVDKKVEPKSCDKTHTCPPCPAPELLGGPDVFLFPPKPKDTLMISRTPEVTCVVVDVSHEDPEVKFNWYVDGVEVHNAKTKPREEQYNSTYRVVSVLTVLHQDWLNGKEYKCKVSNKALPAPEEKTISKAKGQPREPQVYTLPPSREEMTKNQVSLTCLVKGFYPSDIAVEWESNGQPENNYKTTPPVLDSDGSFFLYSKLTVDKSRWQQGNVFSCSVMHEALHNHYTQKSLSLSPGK
light: DIVMTQSPATLSLSPGERATLSCRSSKSLQNVNGNTYLYWFQQKPGQSPQLLIYRMSNLNSGVPDRFSGSGSGTEFTLTISSLEPEDFAVYYCMQHLEYPITFGAGTKLEIKRTVAAPSVFIFPPSDEQLKSGTASVVCLLNNFYPREAKVQWKVDNALQSGNSQESVTEQDSKDSTYSLSSTLTLSKADYEKHKVYACEVTHQGLSSPVTKSFNRGEC
notes: HuAM4G7 anti-CD19 IgG1 (m1) with these Fc substitutions, EU index; copies: 2 + 2
B2: S267E/L328Y (antibody, human IgG1, kappa)
heavy: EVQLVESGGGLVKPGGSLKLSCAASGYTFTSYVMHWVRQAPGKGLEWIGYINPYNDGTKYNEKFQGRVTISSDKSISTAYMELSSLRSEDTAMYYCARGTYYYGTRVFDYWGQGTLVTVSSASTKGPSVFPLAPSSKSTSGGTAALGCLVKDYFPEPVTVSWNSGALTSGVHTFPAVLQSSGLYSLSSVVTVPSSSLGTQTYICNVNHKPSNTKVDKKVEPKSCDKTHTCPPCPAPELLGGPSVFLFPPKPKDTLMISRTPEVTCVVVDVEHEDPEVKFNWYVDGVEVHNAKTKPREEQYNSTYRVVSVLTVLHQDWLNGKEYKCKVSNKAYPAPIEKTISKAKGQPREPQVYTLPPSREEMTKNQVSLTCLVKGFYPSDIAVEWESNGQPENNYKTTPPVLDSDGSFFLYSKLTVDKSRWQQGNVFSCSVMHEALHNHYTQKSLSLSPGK
light: B1 light
notes: as for B1
B3: anti-CD19 antibody HuAM4G7 IgG1 L235Y/S267E (antibody)
heavy: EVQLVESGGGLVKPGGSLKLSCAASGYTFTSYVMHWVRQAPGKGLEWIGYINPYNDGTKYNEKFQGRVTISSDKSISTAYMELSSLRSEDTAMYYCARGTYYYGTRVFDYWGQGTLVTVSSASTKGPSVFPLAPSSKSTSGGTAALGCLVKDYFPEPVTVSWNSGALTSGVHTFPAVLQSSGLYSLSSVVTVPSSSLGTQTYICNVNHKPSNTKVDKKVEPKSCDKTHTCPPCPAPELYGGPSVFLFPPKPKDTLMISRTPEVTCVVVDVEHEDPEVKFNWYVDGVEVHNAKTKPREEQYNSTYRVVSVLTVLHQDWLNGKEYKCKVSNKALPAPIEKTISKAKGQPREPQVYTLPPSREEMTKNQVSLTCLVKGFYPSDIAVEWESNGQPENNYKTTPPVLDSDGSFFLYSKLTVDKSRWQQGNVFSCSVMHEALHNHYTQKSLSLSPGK
light: B1 light
notes: Positions in EU numbering; copies: 2 + 2
B4: anti-CD19 antibody HuAM4G7 IgG1 S267A (antibody)
heavy: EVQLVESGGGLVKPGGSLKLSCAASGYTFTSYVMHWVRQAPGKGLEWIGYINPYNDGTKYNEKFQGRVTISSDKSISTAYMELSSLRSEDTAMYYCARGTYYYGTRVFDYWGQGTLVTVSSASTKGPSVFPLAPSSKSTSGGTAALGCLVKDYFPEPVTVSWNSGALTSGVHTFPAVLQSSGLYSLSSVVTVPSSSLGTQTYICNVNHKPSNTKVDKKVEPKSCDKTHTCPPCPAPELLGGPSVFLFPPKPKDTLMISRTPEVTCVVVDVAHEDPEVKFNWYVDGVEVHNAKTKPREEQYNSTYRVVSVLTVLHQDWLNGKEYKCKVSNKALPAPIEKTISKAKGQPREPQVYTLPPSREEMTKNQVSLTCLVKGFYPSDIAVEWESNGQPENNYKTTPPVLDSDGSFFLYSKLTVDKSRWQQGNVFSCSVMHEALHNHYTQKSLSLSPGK
light: B1 light
notes: as for B3
B5: S267D (antibody, human IgG1, kappa)
heavy: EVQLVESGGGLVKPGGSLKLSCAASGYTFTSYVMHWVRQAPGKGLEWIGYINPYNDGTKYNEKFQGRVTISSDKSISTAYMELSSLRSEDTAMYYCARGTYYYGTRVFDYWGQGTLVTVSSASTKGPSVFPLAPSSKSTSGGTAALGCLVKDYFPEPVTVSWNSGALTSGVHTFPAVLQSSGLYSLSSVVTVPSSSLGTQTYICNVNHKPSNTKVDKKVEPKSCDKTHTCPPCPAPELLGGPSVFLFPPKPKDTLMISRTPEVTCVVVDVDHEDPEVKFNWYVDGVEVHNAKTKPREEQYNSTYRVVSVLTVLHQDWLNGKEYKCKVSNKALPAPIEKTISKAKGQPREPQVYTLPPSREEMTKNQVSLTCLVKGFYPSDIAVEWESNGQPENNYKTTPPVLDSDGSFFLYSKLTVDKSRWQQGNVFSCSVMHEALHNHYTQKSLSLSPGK
light: B1 light
notes: HuAM4G7 anti-CD19 IgG1 (m1) with this Fc substitution, EU index; copies: 2 + 2

Tests used:
[1] = target: T1, human FcγRIIb receptor protein (R&D …); test: SPR
[2] = target: T8, human FcγRI receptor protein (R&D Systems) (human, UniProt P12314 16-288); test: SPR
T8 construct: also called soluble FcγRI; solFcγRI
T8 sequence (P12314 16-288 limits assumed): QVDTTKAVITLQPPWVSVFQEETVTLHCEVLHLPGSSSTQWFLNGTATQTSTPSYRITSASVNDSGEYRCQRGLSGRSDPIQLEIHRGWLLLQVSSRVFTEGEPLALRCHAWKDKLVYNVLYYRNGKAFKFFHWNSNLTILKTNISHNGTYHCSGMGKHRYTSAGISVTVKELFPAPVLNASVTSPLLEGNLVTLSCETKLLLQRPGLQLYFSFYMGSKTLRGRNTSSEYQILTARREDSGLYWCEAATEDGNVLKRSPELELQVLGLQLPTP

[3] = target: T2, human FcγRIIa (131R), His- and …; test: SPR
[4] = target: T3, human FcγRIIa (131H), His- and …; test: SPR
[5] = target: T9, human FcγRIIIa (158F), His- and GST-tagged (human, UniProt P08637 17-208); test: SPR
T9 construct: also called F158 FcγRIIIa; not shown: 6xHis and GST tags of the pTT5 vector
T9 sequence (P08637 17-208): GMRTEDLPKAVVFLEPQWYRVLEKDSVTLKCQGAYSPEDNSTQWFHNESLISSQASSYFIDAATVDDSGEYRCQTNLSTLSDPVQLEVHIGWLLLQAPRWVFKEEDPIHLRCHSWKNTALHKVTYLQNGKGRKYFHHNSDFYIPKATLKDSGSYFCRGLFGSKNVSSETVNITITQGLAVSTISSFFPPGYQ

[6] = target: T4, human FcγRIIb on cells (transfected …); test: flow cytometry on FcγRIIb-transfected 293T cells [top left panel]
Protocol: (§1) In order to validate the Biacore data and evaluate receptor binding of the variants on the cell surface, binding of select antibodies to cells expressing FcγRIIb was measured. […] HEK293T cells in DMEM with 10% FBS were transfected with human FcγRIIb cDNA in pCMV6 expression vector (Origene Technologies, Rockville, Md.), cultured for 3 days, harvested, washed twice in PBS, resuspended in PBS with 0.1% BSA (PBS/BSA), and aliquoted at 2×10^5 cells per well into 96-well microtiter plates. Fc variant antibodies were serially diluted in PBS/BSA then added to the cells and incubated with mixing for 1 h at room temperature. After extensive washing with PBS/BSA, phycoerythrin (PE)-labeled anti-human-Fab-specific goat F(ab′)2 fragment was added for detection. Cells were incubated for 30 min at room temperature, washed, and resuspended in PBS/BSA. Binding was evaluated using a FACSCanto II flow cytometer (BD Biosciences, San Jose, Calif.), and the mean fluorescence intensity (MFI) was plotted as a function of antibody concentration using Graph Pad Prism software (GraphPad Software, San Diego, Calif.) from which half-maximal binding (EC50) values were determined by sigmoidal dose response modeling.

[7] = target: T4, human FcγRIIb on cells (transfected …); test: flow cytometry on FcγRIIb-transfected 293T cells [top right panel]
Protocol: as §1

[8] = target: T4, human FcγRIIb on cells (transfected …); test: flow cytometry on FcγRIIb-transfected 293T cells [middle left panel]
Protocol: as §1

[9] = target: T4, human FcγRIIb on cells (transfected …); test: flow cytometry on FcγRIIb-transfected 293T cells [middle right panel]
Protocol: as §1

[10] = target: T10, human FcγRIIIa (158V), His- and GST-tagged (human, UniProt P08637 17-208); test: SPR
T10 construct: also called V158 FcγRIIIa; VIIIa; not shown: 6xHis and GST tags of the pTT5 vector
T10 sequence (P08637 17-208 F176V): as the sequence (P08637 17-208) above, with F160V counted along it

mFcγRIIb = target: T5, mFcγRIIb; test: SPR
cynoFcγRIIb = target: T6, cynoFcγRIIb; test: SPR
cynoFcγRIIIa [11] = target: T11, cynoFcγRIIIa (Macaca fascicularis, UniProt Q8SPW2); test: SPR, Kd
T11 construct: extracellular region, C-terminal His- and GST-tag; also called cynomolgus monkey FcγRIIIa
T11 sequence (Q8SPW2 17-208): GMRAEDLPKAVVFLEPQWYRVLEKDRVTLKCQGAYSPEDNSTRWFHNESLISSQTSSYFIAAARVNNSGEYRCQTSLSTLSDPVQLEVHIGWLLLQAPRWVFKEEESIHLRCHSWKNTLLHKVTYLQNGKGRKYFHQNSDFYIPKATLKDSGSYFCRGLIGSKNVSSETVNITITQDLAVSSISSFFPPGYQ
Protocol: Variants were screened for receptor affinity using Biacore™ technology, also referred to as Biacore herein, a surface plasmon resonance (SPR) based technology for studying biomolecular interactions in real time. SPR measurements were performed using a Biacore 3000 instrument (Biacore, Piscataway, N.J.). A protein A/G (Pierce Biotechnology) CM5 biosensor chip (Biacore) was generated using a standard primary amine coupling protocol. All measurements were performed using HBS-EP buffer (10 mM HEPES pH 7.4, 0.15 M NaCl, 3 mM EDTA, 0.005% vol/vol surfactant P20, Biacore). Antibodies at 20 nM or 50 nM in HBS-EP buffer were immobilized on the protein A/G surface and FcγRs were injected. After each cycle, the surface was regenerated by injecting glycine buffer (10 mM, pH 1.5). Data were processed by zeroing time and response before the injection of FcγR and by subtracting appropriate nonspecific signals (response of reference channel and injection of running buffer). Kinetic analyses were performed by global fitting of binding data with a 1:1 Langmuir binding model using BIAevaluation software (Biacore).
Variant antibodies were tested for their affinity to mouse or cynologous monkey FcγRs using Biacore SPR as described above. Specifically, antibodies were first immobilized on a protein A/G chip to high density, and then followed by injections of the extracellular domain of the mouse or cynologous monkey FcγR of interest. Both association and dissociation phases were tracked in real time using the Biacore technology.

[12] = target: T4, human FcγRIIb on cells (transfected …); test: flow cytometry on FcγRIIb-transfected 293T cells [bottom left panel]
Protocol: as §1

mFcγRIV = target: T7, mFcγRIV; test: SPR
cynoFcγRIIIa [13] = target: T11, cynoFcγRIIIa; test: SPR
[14] = target: T1, human FcγRIIb receptor protein (R&D …); test: Biacore SPR, Kd(native IgG1)/Kd(variant)
[15] = target: T1, human FcγRIIb receptor protein (R&D …); test: Biacore SPR, antibody captured on protein A/G chip, FcγR injected
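Throughout, for Fold vs WT IgG1 (off-rate): fold improvement over WT IgG1 so higher means slower dissociation than WT.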

| Binder | Kd [1] [nM] | Kd [2] [nM] | Kd [3] [nM] | Kd [4] [nM] | EC50 (read off the curve) [6] [µg/mL] | Fold vs WT IgG1 [1] [fold] | Fold vs WT IgG1 [2] [fold] | Fold vs WT IgG1 [3] [fold] | Fold vs WT IgG1 [4] [fold] | binding result [10] | Fold vs WT IgG1 (off-rate) (mFcγRIIb) [fold] | Fold vs WT IgG1 (off-rate) (cynoFcγRIIb) [fold] | Fold vs WT IgG1 [10] [fold] | Kd [10] [nM] | Fold vs WT IgG1 (off-rate) (mFcγRIV) [fold] | Fold vs WT IgG1 (off-rate) (cynoFcγRIIIa [13]) [fold] | other results |
| --- | --- | --- | --- | --- | --- | --- | --- | --- | --- | --- | --- | --- | --- | --- | --- | --- | --- |
| B1 | 101 | 0.0374 | 68.6 | 163 | ~0.02 |  |  |  |  |  |  |  |  |  |  |  | Kd [5]: 28.2 nM; EC50 (read off the curve) [7]: ~0.02 µg/mL; EC50 (read off the curve) [8]: ~0.03 µg/mL; EC50 (read off the curve) [9]: ~0.03 µg/mL |
| B2 | 34.1 | 1.47 | 7.06 | 481 |  | 43.1 | 0.224 | 122 | 1.34 | no binding | 7.92 | 1.93 |  |  |  |  | binding result (cynoFcγRIIIa [11]): no binding |
| B3 | 39.4 | 95 | 22.9 | 687 |  | 37.2 | 0.00347 | 37.5 | 0.941 | no binding |  |  |  |  |  |  | EC50 (read off the curve) [12]: ~0.006 µg/mL |
| B4 |  | 0.287 | 200 | 530 |  |  | 1.15 | 4.29 | 1.22 |  | 3.02 | 1.05 | 0.952 | 201 | 1.53 | 1.27 | fold affinity relative to native IgG1 [14]: 3.6 fold; Kd [15]: 408 nM |
| B5 | 330 | 0.156 | 95.5 | 695 | ~0.03 | 4.45 | 2.11 | 8.99 | 0.93 |  | 1.95 | 1.03 | 1.51 | 127 | 1.27 | 1.27 |  |
